# Laboratory results taken from patent US20090228996A1, “Means and Methods for influencing Interactions Between Dc-Sign and Dc-Sign Ligands” (priority 2006, published 2009).
# B1: human α-lactalbumin: major human milk protein (Sigma) (protein, UniProt P00709 20-142, looked up)
# Alpha-lactalbumin: KQFTKCELSQLLKDIDGYGGIALPELICTMFHTSGYDTQAIVENNESTEYGLFQISNKLWCKSSQVPQSRNICDISCDKFLDDDITDDIMCAKKILDIKGIDYWLAHKALCTEKLEQWLCEKL
# B2: human SLPI: human milk protein SLPI (Sigma) (protein, UniProt P03973 26-132, looked up)
# Antileukoproteinase: SGKSFKAGVCPPKKSAQCLRYKKPECQSDWQCPGKKRCCPDTCGIKCLDPVDTPNPTRRKPGKCPVTYGQCLMLNPPNFCEMDGQCKRDLKCCMGMCGKSCVSPVKA
# B3: bovine β-casein: milk protein (NIZO Food Research) (protein, UniProt P02666 16-224, looked up)
# Beta-casein: RELEELNVPGEIVESLSSSEESITRINKKIEKFQSEEQQQTEDELQDKIHPFAQTQSLVYPFPGPIPNSLPQNIPPLTQTPVVVPPFLQPEVMGVSKVKEAMAPKHKEMPFPKYPVEPFTESQSLTLTDVENLHLPLPLLQSWMHQPHQPLPPTVMFPPQSVLSLSQSKVLPVPQKAVPYPQRDMPIQAFLLYQEPVLGPVRGPFPIIV
# B4: bovine lactoferrin: control protein previously shown to bind DC-SIGN (protein, UniProt P24627 20-708, looked up)
# Lactotransferrin: APRKNVRWCTISQPEWFKCRRWQWRMKKLGAPSITCVRRAFALECIRAIAEKKADAVTLDGGMVFEAGRDPYKLRPVAAEIYGTKESPQTHYYAVAVVKKGSNFQLDQLQGRKSCHTGLGRSAGWIIPMGILRPYLSWTESLEPLQGAVAKFFSASCVPCIDRQAYPNLCQLCKGEGENQCACSSREPYFGYSGAFKCLQDGAGDVAFVKETTVFENLPEKADRDQYELLCLNNSRAPVDAFKECHLAQVPSHAVVARSVDGKEDLIWKLLSKAQEKFGKNKSRSFQLFGSPPGQRDLLFKDSALGFLRIPSKVDSALYLGSRYLTTLKNLRETAEEVKARYTRVVWCAVGPEEQKKCQQWSQQSGQNVTCATASTTDDCIVLVLKGEADALNLDGGYIYTAGKCGLVPVLAENRKSSKHSSLDCVLRPTEGYLAVAVVKKANEGLTWNSLKDKKSCHTAVDRTAGWNIPMGLIVNQTGSCAFDEFFSQSCAPGADPKSRLCALCAGDDQGLDKCVPNSKEKYYGYTGAFRCLAEDVGDVAFVKNDTVWENTNGESTADWAKNLNREDFRLLCLDGTRKPVTEAQSCHLAVAPNHAVVSRSDRAAHVKQVLLHQQALFGKNGKNCPDKFCLFKSETKNLLFNDNTECLAKLGGRPTYEEYLGTEYVTAIANLKKCSTSPLLEACAFLTR
# B5: human lactoferrin: major human milk protein (Sigma-Aldrich) (protein, UniProt P02788 20-710, looked up)
# Lactotransferrin: GRRRSVQWCAVSQPEATKCFQWQRNMRKVRGPPVSCIKRDSPIQCIQAIAENRADAVTLDGGFIYEAGLAPYKLRPVAAEVYGTERQPRTHYYAVAVVKKGGSFQLNELQGLKSCHTGLRRTAGWNVPIGTLRPFLNWTGPPEPIEAAVARFFSASCVPGADKGQFPNLCRLCAGTGENKCAFSSQEPYFSYSGAFKCLRDGAGDVAFIRESTVFEDLSDEAERDEYELLCPDNTRKPVDKFKDCHLARVPSHAVVARSVNGKEDAIWNLLRQAQEKFGKDKSPKFQLFGSPSGQKDLLFKDSAIGFSRVPPRIDSGLYLGSGYFTAIQNLRKSEEEVAARRARVVWCAVGEQELRKCNQWSGLSEGSVTCSSASTTEDCIALVLKGEADAMSLDGGYVYTAGKCGLVPVLAENYKSQQSSDPDPNCVDRPVEGYLAVAVVRRSDTSLTWNSVKGKKSCHTAVDRTAGWNIPMGLLFNQTGSCKFDEYFSQSCAPGSDPRSNLCALCIGDEQGENKCVPNSNERYYGYTGAFRCLAENAGDVAFVKDVTVLQNTDGNNNEAWAKDLKLADFALLCLDGKRKPVTEARSCHLAMAPNHAVVSRMDKVERLKQVLLHQQAKFGRNGSDCPDKFCLFQSETKNLLFNDNTECLARLHGKTTYEKYLGPQYVAGITNLKKCSTSPLLEACEFLRK
# Assays:
# DC-SIGN-Fc = molecular target: T1, DC-SIGN-Fc (Homo sapiens, UniProt Q9NNX6); test: DC-SIGN-Fc binding ELISA; conditions: major milk proteins at 1/20 dilution of physiological concentration in human milk
# T1 construct: the extracellular portion of DC-SIGN (amino acids 64 to 404)
# T1 sequence (Q9NNX6 64-404): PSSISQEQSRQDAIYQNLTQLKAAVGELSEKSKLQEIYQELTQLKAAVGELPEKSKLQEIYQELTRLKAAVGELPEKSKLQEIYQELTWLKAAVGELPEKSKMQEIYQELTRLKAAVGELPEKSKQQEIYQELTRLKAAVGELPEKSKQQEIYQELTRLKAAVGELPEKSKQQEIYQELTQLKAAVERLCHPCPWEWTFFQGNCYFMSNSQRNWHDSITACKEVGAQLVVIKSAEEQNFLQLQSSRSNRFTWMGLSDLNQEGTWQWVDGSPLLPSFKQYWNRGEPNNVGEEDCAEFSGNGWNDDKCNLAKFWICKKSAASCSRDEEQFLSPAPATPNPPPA
# Experimental: DC-SIGN-Fc binding ELISA. The DC-SIGN-Fc chimera contained the extracellular portion of DC-SIGN (amino acids 64 to 404) fused at the C-terminus to a human immunoglobulin (Ig) G1 Fc fragment and has been previously described (Geijtenbeek et al, 2002). Human milk or human milk compounds were diluted in 0.2M NaHCO3, coated on ELISA plates (maxisorb plate; Nunc) and incubated overnight at 4° C. or 2 hours at 37° C. This was followed by blocking with TSM containing 1% BSA for 30 minutes at 37° C. before addition of soluble DC-SIGN-Fc (5 μg/ml) for 2 hours at RT, the binding was determined by incubation of a peroxidase labeled anti-IgG1 antibody for 30 minutes at RT. DC-SIGN-Fc binding specificity was determined by pre-incubation of the DC-SIGN-FC with either 50 μg/ml DC-SIGN specific mouse antibody AZN-D1 (Geijtenbeek et al, 2000 a) or 10 mM EGTA. Single-cycle-replication transmission assay. The assay was performed as previously described (Groot et al, 2005). In short mDCs and iDCs were incubated in a 96-well-plate (35−50×10^3 DC/well) with human milk for 30 minutes at 37° C. before addition of the virus (5 ng p24/well), which was incubated for 2 hours at 37° C. The DCs were washed twice with PBS before addition of 50×10^3 LuSIV cells. After 24 hours, LuSIV cells were harvested and resuspended in 50 μl lysis buffer (25 mM Tris-Cl 7.8, 2 mM DTT, 2 mM CDTA, 10% glycerol, 1% Triton X100). The cells were then incubated for 45 minutes at room temperature while shaking, followed by 10 minutes centrifugation at 3200×g. The supernatant was transferred to a white-solid 96 well plate (Corning Costar), and 150 μl of lucibuffer (100 μg/ml BSA, 6.6 mM ATP, 15 mM MgSO4, 25 mM glycylglycine) was added. 100 μl of DE(−)Luciferin (Roche Diagnostics GmbH) was injected per well (0.28 mg/ml lucibuffer excluding ATP). 50×10^3 LuSIV cells grown without DC or HIV-1 were used to obtain the background luciferase value.
# DC-SIGN-Fc binding ELISA. The DC-SIGN-Fc chimera contained the extracellular portion of DC-SIGN (amino acids 64 to 404) fused at the C-terminus to a human immunoglobulin (Ig) G1 Fc fragment which has been previously described (Geijtenbeek et al, 2002). Human milk or BSSL were diluted in 0.2 M NaHCO3, coated on ELISA plates (maxisorb plate; Nunc) and incubated overnight at 4° C. or 2 hours at 37° C. This was followed by blocking with TSM containing 1% BSA for 30 minutes at 37° C. before addition of soluble DC-SIGN-Fc (5 μg/ml) for 2 hours at RT, the binding was determined by incubation of a peroxidase labeled anti-IgG1 antibody for 30 minutes at RT. DC-SIGN-Fc binding specificity was determined by pre-incubation of the DC-SIGN-Fc with either 50 μg/ml DC-SIGN specific mouse antibody AZN-D1 (Geijtenbeek et al, 2000 a) or 10 mM EGTA.
# DC-SIGN on iDCs = molecular target: T2, DC-SIGN on iDCs (Homo sapiens, UniProt Q9NNX6); test: gp120 bead adhesion assay, immature DCs; assay type: cell-based; conditions: major milk proteins at 1/20 dilution of physiological concentration in human milk
# T2 construct: endogenous in cells
# T2 sequence (Q9NNX6 1-404): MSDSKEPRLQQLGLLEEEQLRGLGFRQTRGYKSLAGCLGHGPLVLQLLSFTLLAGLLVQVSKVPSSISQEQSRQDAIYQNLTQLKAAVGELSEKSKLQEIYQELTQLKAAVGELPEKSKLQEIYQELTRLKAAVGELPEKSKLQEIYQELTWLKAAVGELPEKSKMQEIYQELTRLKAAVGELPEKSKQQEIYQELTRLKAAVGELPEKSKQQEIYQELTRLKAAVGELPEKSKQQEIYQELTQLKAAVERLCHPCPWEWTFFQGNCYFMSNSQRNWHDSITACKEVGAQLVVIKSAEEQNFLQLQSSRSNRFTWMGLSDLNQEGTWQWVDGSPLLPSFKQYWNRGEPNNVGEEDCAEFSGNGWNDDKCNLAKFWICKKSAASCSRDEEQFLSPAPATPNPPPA
# Experimental: (§1) gp120 bead adhesion assay. Beads were prepared as previously described (Geijtenbeek et al, 2000 a), in short, streptavidin was covalently coupled to Carboxylate-modified TransFluoSpheres (488/645 nm, 1.0 μm; molecular probes). The steptavidin-beads were incubated with biotinylated F(ab′)2 fragment goat-anti-human IgG (6 μg/ml; Jackson Immunoresearch) and subsequently incubated overnight with gp120-Fc chimera. Fifty thousand cells, Raji-DC-SIGN cells, immature DCs or Raji-L-SIGN cells, were pre-incubated with human milk or milk compounds, AZN-D1 (Geijtenbeek et al, 2000 a), AZN-D2 (Halary et al, 2002), EGTA or mannan for 30 minutes at RT. The ligand-coated beads (20 beads/cell) were added to the pre-incubated cells and incubated for 30 minutes at 37° C. after which the cells were washed with TSM containing 0.5% BSA. After washing, the cells were resuspended in 100 μl TSM-BSA buffer and the adhesion was measured by flow cytometry (BD Biosciences).
# (§2) gp120 bead adhesion assay. Beads were prepared as previously described (Geijtenbeek et al, 2000 a), in short, streptavidin was covalently coupled to Carboxylate-modified TransFluoSpheres (488/645 nm, 1.0 μm; molecular probes). The steptavidin-beads were incubated with biotinylated F(ab′)2 fragment goat-anti-human IgG (6 μg/ml; Jackson Immunoresearch) and subsequently incubated overnight with the gp120-Fc chimera. Fifty thousand cells, Raji-DC-SIGN cells or iDCs were pre-incubated with human milk, AZN-D1 (Geijtenbeek et al, 2000 a), AZN-D2 (Halary et al, 2002), EGTA or mannan for 30 minutes at RT. The ligand-coated beads (20 beads/cell) were added to the pre-incubated cells and incubated for 30 minutes at 37° C. after which the cells were washed with TSM (20 mM Tris, 150 mM NaCl, 1 mM CaCl2, 2 mM MgCl2) containing 0.5% BSA. After washing, the cells were resuspended in 100 μl TSM-BSA buffer and the adhesion was measured by flow cytometry (BD Biosciences).
# [1] = molecular target: T3, DC-SIGN on Raji-DC-SIGN cells (Homo sapiens, UniProt Q9NNX6); test: gp120 bead adhesion assay, Raji-DC-SIGN cells; assay type: cell-based; conditions: major milk proteins at 1/20 dilution of physiological concentration in human milk
# T3 construct: expressed in transfected cells; host or cells: Raji cells (Raji-DC-SIGN)
# T3 sequence (Q9NNX6 1-404): T2 sequence (Q9NNX6 1-404)
# Experimental: as §1, §2
# DC-SIGN = molecular target: T4, DC-SIGN (Homo sapiens, UniProt Q9NNX6); conditions: literature; cited from earlier work
# T4 sequence (Q9NNX6 1-404): T2 sequence (Q9NNX6 1-404)
Molecule,DC-SIGN-Fc binding to coated milk compound (DC-SIGN-Fc),gp120 binding to iDCs (DC-SIGN on iDCs),gp120 binding to Raji-DC-SIGN [1],previously shown DC-SIGN binding (DC-SIGN)
B1,showed no binding,None of the tested human milk compounds could inhibit gp120 binding,None of the tested human milk compounds could inhibit gp120 binding,
B2,showed no binding,None of the tested human milk compounds could inhibit gp120 binding,None of the tested human milk compounds could inhibit gp120 binding,
B3,showed no binding,None of the tested human milk compounds could inhibit gp120 binding,None of the tested human milk compounds could inhibit gp120 binding,
B4,,,,bind DC-SIGN and prevent viral transfer
B5,showed no binding,None of the tested human milk compounds could inhibit gp120 binding,None of the tested human milk compounds could inhibit gp120 binding,
